Assay: yeast display, Sf9 membrane polyspecificity reagent, FACS + sequencing; frameworks hold sequencing errors
Summary of the method: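 Polyreactivity labels are assigned by the sorting gate from which each nanobody was recovered. The gates were low and high (top ~1%), set on anti-HA fluorescence for expression and streptavidin fluorescence for reagent binding. Before sorting, galactose-induced (36–48 hours) yeast display cells were stained for 1 hour at 4 °C with 10% biotinylated, detergent-solubilized Sf9 membrane reagent.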

Row | Sequence | polyreactivity (PSR sort gate)
1 | QVQLVESGGGLVQAGGSLRLSCAASGFTFDTYAMGWYRQAPGKERELVAAISWSGGSTYYADSVKGRFTISRDNAKNTVYLQMNSLKPEDTAVYYCAAETPVDWWSTSYNYWGQGTQVTVSS | high polyreactivity
2 | QVQLVESGGGLVQAGGSLRLSCAASGRTFRVYAMGWYRQAPGKERELVASITNDGSTYADSVKGRFTISRDNAKNTVYLQMNSLKPEDTAVYFCAARFPQWRYSRRTGERFDYWGQGTQVTVSS | low polyreactivity
3 | QVQLVESGGGLVQAGGSLRLSCAASGLTLNYYAMGWYRQAPGKERELVASISRSGGRTYYADSVKGRFTISRVNAKNTVYLQMNSLKPDDSAVYYCNADWYRGRYDYWGQGTQVTVSS | high polyreactivity
4 | QVQLVESGGGLVQAGGSLRLSCAASGITFYRNAMGWYRQAPGKEMELVAAITWNGGRTYYADSVKGRFTISRDNAKNTVYLQMNSLKPEDTAVYYCAADSGTRNLASYRYYYWGQGTQVTVSS | low polyreactivity
5 | QVQLVESGGGLVQAGGSLRLSCAASGRTFFDYAMGWYRQAPGKEWELVAAITASGSSTYYADSVKGRFTISRDNAKNTVYLQMNSLKPDDTAVYYCAAGASANKKITSYDYWGQGTQVTVSS | low polyreactivity
6 | QVQLVDSGGGLVHAGGSLRLSCAASGSTLIGNAMGWYRQAPWKERELVARISLRGGRTYYADSVKGRFTISRDNAKHTVYLQMNSLKPEDTAVYYCNRGGFSRYYYWGQGTQVTVSS | low polyreactivity
7 | QDQLVDSGGGLVQAGGSLRLSCAASGSTFGPYPMGWYRQAPGKERELVATISSGGSTYYADSVKGRFTISRDNAKNTVYLQMNSLKPEDTSVYDCAARYWSIYDYWGQGTQVTVSS | low polyreactivity
8 | QVQLVESGGGLVQAGGILSLSSAAYGRISVFYTMGWYIQAPGKERELVAVIRTAGGRTKYADSVKGRFTISRDNAKNTVYLQMNSLKPEDTAVYYCADRVVRYGYKYYYWGQGTQVTVSS | low polyreactivity
9 | QVQLVESGGGSVQAGGSLRLSCAASGSTIRYYAMGWYRQAPGKERELVARITSRAGRTYYADSVKGRFTISRDNAKNTVYLQMNSLKPEDTAVYYCNTRDFSGYVHALSLYDYWGQGTQVTVSS | high polyreactivity
10 | QVQLVESGGGLVQAGGSLRLSCAASGSLFNLYAMGWYIQAPGKERELVAAISWSGGRTFYADSVKGRFTISRDNAKNTVFLQMNSLKPEDTAVYDCAARSSRTTRQGYDYWGQGTQVNVSS | high polyreactivity
11 | QVQLVESGGGLVQAGGSLRLSCAASGFTFSYYTMGWYRQAPGKERELVAAISSTGVSTYYADSVKGRFTISRDNAKNTVYLQMNSLKPEDTAVYYCAADYYGVYEYYYWGQGTQVTVSS | high polyreactivity
12 | QVQLVESGGGLVQAGGSLRLSCAASGSIFRLYVMGWYRQAPGKERELVAAITLSGGSTYYADSVKGRFTISRDNAENTVYLQMNSLKPEDTAVYYCNRVTLYDITFDYWGQGTQVTVSS | low polyreactivity
13 | QVQLVESGGGLVQAGGSLSLSSAASGFIFHTYAMRWYRQAPGKERELVASITWRGGRTYYADSVKGRFTISRDNAKNTVYLQLNSLNPVYTAVYYCAAVTFSYDGYDYWGQGTQVTVSS | low polyreactivity
14 | HVQLVESGGGLVQAGGSLRLSCAASGFTIQRYAMGWYRQAPGKERELVAAITSGGSTYYADSVKGRFTISRDNAMNTVYLQMNSLKPEDTAVYYCATRAVWSSWGRRYDSWGQGTQVTVSS | high polyreactivity
15 | QVQLVESGGGLVQAGGSLRLSCAASGIIFGRYTMGWYRQAPGKERELVAAITSSGITYYADSVKGRFTISRDNAKNTDYLQMNSLKPEDTAVYYCNADYSIPGYYWPYDYWGQGTQVTVSS | low polyreactivity
16 | QVQLVESGGGLVQAGGSIRLSCAASGRIFHPYAMGWYRQAPGKERELVATISWSGGSTTYADSVKGRFTISRDNAKNTVYLQMNSLKPEDTAVYYCNADYWWSYVRFDYWGQGTQVTVSS | low polyreactivity
17 | QVQLVESGGGLVQAGGSLRLSCAASGSTFFLYAMGWYRQAAGKERELVAAISVSGGSTRYADSVNGRFTISRDHAKNTVYLQMNSLKPEDTAVYYCAAASRLEYSHATLYYWGQGTQVTVSS | high polyreactivity
18 | QVQLVESGGGLVQAGGSLRLSCAASGITFNNNGMGWYRQAPGKERELVASIRSGGRTNYADSVKGRFTISRDNAKNTVYLQMNSLKPEDTAVYYCAAVWYTSRQKYDYWGQGTQVTVSS | low polyreactivity
19 | QVQLVESGGGLVQAGGSLRLSCAPSGITFRYYAMGWYRQAPGKERELVAAITRSGSTTYADSVKGRFTISRDNAKNTVYLQMNSLKPEVTAVYYCAVDYYYLTGGVDYWGQGTQVTVSS | low polyreactivity
20 | QVQLVESGGGLVQAGGSLRLSCAASGSIFGSYAMGWYTQAPGKERELVAAITRAGSTNYADSVKGRFTISRDNAKNTVYLQINSLKPEDTAVFYCAVRPGFGRSLWYGYWGQGTQVTVSS | low polyreactivity
21 | QVQLVESGGGLVQEGGSLRLSCAASGYTFGRYFMGWYRQAPGKEREFVAAISRGGGSTYYADSVKGRFTISRDNAKNTVYLQMNSLKPEDTAVYYCDTRSSNAEYWGQGTQVTVSS | high polyreactivity

Row | Sequence | polyreactivity (PSR sort gate)
22 | QVQLVESGGGLVQAGGSLRLSCAASGFTFRANAMGWYRQAPGKERELVAAISQSGGRTNYADSVKGRFTISRDNAKNTVYLQMNSLKPEDTAVYYCAAPYSAKELYYRMDYWGQGTQVTVSS | high polyreactivity
23 | QVPLVESGGGLVQSGGSLRISCAASGSIFAPNAMGWYRQAPGKERELVAAITSGGSTDYADYVKGRFTISRDNAKNTVYLQMNRLKPEDTAVYFCAKGYVPYAIFDYWGQATQVTVSS | low polyreactivity
24 | QVQLVESGGGLVQAGGSLRLSCAASGITLARNAMGWYRQAPGKERELVASITWSGGTTYYADSVKGRFTISRDNAKNTVYLQMNSLKPEDTAVYYCAASAKLHFYRTYRYNYWGQGTQVTVSS | high polyreactivity
25 | QVHPVESGGGLVQAGGSLRLSCAASGGILYRNAMGWYRQAPGKERELVAAISSRGGSTYYADSVKGRFTISRDNAKNTVYLQMNSLKPEDTAVYYCAVVNRSAQSLKYEYWGQGTQVTVSS | high polyreactivity
26 | QVQLVESGGGLVQAGGSLRLSCAASGSIFGYYAMGWYRQAPGKERELVAAISWSDGSTYYADSVKGRFTISRDNAKNTVYLQMNMLKPEDTAVYYCAARFTPYITSDDGHYDYWGQGTQVTVSS | low polyreactivity
27 | QVQLQESGGGLVQAGGSLRLSCAASGSNFDTPTMGWYRQAPGKERELVASIAYDDNTYYADSVKGRFTISRYNAKNTVYLQMNSLKPGETAVYYCAVTDRIYYYFVYWGQGTRVTVSS | high polyreactivity
28 | QVQLVESGGGLVQAGGSLRLSCAAYGTIFFSYSMGWYRQAPGKERELVADIRSSDDDTYYADSVKGRFTISRDNAKNTGYLQMNSMKPEDTAVYYCNADFGYWWDGRRYDYWGQGTQVTVSS | low polyreactivity
29 | QVHLVESGGGLVQAGGSLRLSCAASGFTIDYYAMAWYRQAPGKERELDAAISRAGSTNYADSVKGRFTISRDNAKNTVYLQMNSLKPEDTAVYYCNKGYHSWSRLSQFGWSYDYWGQGTQVTVSS | high polyreactivity
30 | QVQLVESGGGLVQAGGSLRLSCAASGRTFAKYAMGWSRPAPGKERELVAAIRWSGGSTYYADSVKGRFTISRDNAKNTVYLQMTSLKPEDTAVYYCATERFVLGLGYDYWGQGTQVTVSS | high polyreactivity
31 | QVQLEESGGGLVQAGGSLRLSCAASGRTFYIYVMGWYRPAPGKERELVASITKRVGGTFYADSVKGRFTISGDNAKNTVYLQMNSLKPEDTAVYYCNARARKSIRVGGYNYWGQGTQVTVSS | high polyreactivity
32 | QVQLVESGGGLVQAGGSLRLSCAASGSTFKIYVMGWYRQAPGKERELVAAISWSGGRTFYADSVKGRFTISRDNAKNTVYLQMNSLKPEDTAVYYCAARWQRYRSGTGDYWGQGTQVTVSS | high polyreactivity
33 | QVQLEESGGGLVQAGGILRLSCAASGSTFVNNAMGWYRQAPGKERELVAAITSGSRTKYADSVKGRFTMSLDNAKYTVYFQMNSLQPEDTAVYYWNTMRVGWGQGTQVTVSS | high polyreactivity
34 | QVQLVESGGGLVQAGGSLRLSCAASGSTFRTYAMGWYRQAPGKERELVAAISYNGGSTYYADSVTGRFTISRDNAKNTVYLQMNILKPEDTEVYYFAKDQTGYWYNRYGYWGQGTQVTVSS | low polyreactivity
35 | QVQLVESGGGLVQAGGSLRLSCAASGFIFANYAKGWYRPAPGKERELVAAISSGGITYYADSVKGRFTISRDNAKNTVYLQMNSRKPEDTAVYYCACDVRYQDRSGEYHHWDGDYWGQGTQVTVTS | low polyreactivity
36 | QVQLVESGGGLVQAGGSLSLSCAASGITFVWYALGWYRQAPGTERELVAAISRGGSTYYADSVKGRFTISRDNAKNTVYLQMNSLKPEDTAVYYCNAESAARSTVQQARGYYWGQGTQVTVSS | high polyreactivity
37 | QVQRVESGGGLVQAGCSLLLSCASSGNIFTRNAMGGYRHAPGKEREWVAAISTSGGRTYYADSVKGRFTISRDNAKNTVYLQMYSLKPEDTAVYYCAADYLSGTELYYWGQGTQVTVSS | high polyreactivity
38 | HVQLVESGGGLVQAGGSLRLSCAASGIIFIGNAMGWYSQAPGKERELVAAISRRGGRTYYADSVKGRFTISRDNAKNTVYLQMNSLKPEDTAVYYCNAEISVNDDDYWGQGTQVTVSS | high polyreactivity
39 | QVQLVESGGGLVQAGGSLRLSCAASGSIFYGNTMGWYRQAPGKERELVAAISSGGSTKYADSVKGRFTISRDNAKNTVYLQMNSLKPEDTAVFYCAADLPRYWVTWMDYWGQGTQVTVSS | low polyreactivity
40 | QVQLVESGGGLVQAGGSLRLSCAASGSIFRRNAMGWYRQAPGKERELVAAITWRGDRTYYADSVKGRFTISRDNAKNTVYLQMNSLKPEDTAVYYCNKLGRIQYDYWGQGTQVTVSS | high polyreactivity
41 | QVQLVESGGGLVQAGGSLRLSCAASGRTFYTYAMGWYRQAPGKERELVATITSGGSTYYGDSVKGRFTISRDNAKNTVYLQMNSLKPEDTAVYYCDVEVFVDYDYWGQGTQVTVSS | high polyreactivity
